In the Human Domainome abundance scans (Beltran et al. 2025):
± gives the uncertainty stated by the source.

B1: POU domain, class 2, transcription factor 3, residues 186 to 260; numbered along this chain, Q9UKI9 (parent)
chain: SDLEELEKFAKTFKQRRIKLGFTQGDVGLAMGKLYGNDFSQTTISRFEALNLSFKNMCKLKPLLEKWLNDAESSP

Variants of: B1
Assay: abundance fitness (aPCA) (normalised: wild type 0, dead -1); higher = more abundant; growth selection in yeast, the domain comes from the species named
Conditions: Homo sapiens

| Variant | abundance fitness |
| --- | --- |
| SDLEELEKFAKTFKQRRIKLGFTQGDVGLAMGKLYGNDFSQTTISRFEALNLSFKNMCKLKPLEEKWLNDAESSP [L64E] | -0.888 ± 0.11 |
| SDLEELEKFAKTFKQRRIKLGFTQGDVGLAMGKLYGNDFSQTTISRFEALNLSFKNMCKLKPLTEKWLNDAESSP [L64T] | -0.462 ± 0.084 |
| SDLEELEKFAKTFKQRRIKLGFTQGDVGLAMGKLYGNDFSQTTISRFEALNLSFKNMCKLKPLPEKWLNDAESSP [L64P] | -0.802 ± 0.1 |
| SDLEELEKFAKTFKQRRIKLGFTQGDVGLAMGKLYGNDFSQTTISRFEALNLSIKNMCKLKPLLEKWLNDAESSP [F54I] | -0.006 ± 0.054 |
| SDLEELEKFAKTFKQRRIKLGFTQGDVGLAMGKLYGNDFSQTTISRFEALNLSFKNMCKLKPLLEKWLNVAESSP [D70V] | -0.096 ± 0.036 |
| SDLEELEKFAKTFKQRRIKLGFTQGDVGLAMGKLYGNDFSQTTISRFEALNLSFKNMCKLKPLLEKWLNMAESSP [D70M] | -0.103 ± 0.058 |
| SDLEELEKFAKTFKQRRIKLGFTQGDVGLAMGKLYGNDFSQTTVSRFEALNLSFKNMCKLKPLLEKWLNDAESSP [I44V] | -0.045 ± 0.024 |
| SDLEELEKFAKTFKQRRIKLGFTQGDVGLAMGKLYGNDFSQTTISRFEALNLSFKDMCKLKPLLEKWLNDAESSP [N56D] | 0.008 ± 0.051 |
| SDLEELEKFAKTFKQRRIKLGFTQGDVGLAMGKLYGNDFSQTTISRFEALNLSFKTMCKLKPLLEKWLNDAESSP [N56T] | 0.093 ± 0.048 |
| SDLEELEKFAKTFKQRRIKLGFTQGDVGLAMGKLYGNDFSQTTISRFEALNLSFKRMCKLKPLLEKWLNDAESSP [N56R] | 0.009 ± 0.028 |
| SDLEELEKFAKTFKQRRIKLGFTQGDVGLAMGKLYGNDFSQTTISRFEALNLWFKNMCKLKPLLEKWLNDAESSP [S53W] | -0.958 ± 0.099 |
| SDLEELEKFAKTFKQRRIKLGFTQGDVGLAMGKLYGNDFSQTTISRFEALNLTFKNMCKLKPLLEKWLNDAESSP [S53T] | 0.002 ± 0.048 |
| SDLEELEKFAKTFKQRRIKLGFTQGDVGLAMGKLYGNDFSQTTISRFEALNLNFKNMCKLKPLLEKWLNDAESSP [S53N] | 0.03 ± 0.062 |
| SDLEELEKFAKTFKQRRIKLGFTQGDVGLAMGKLYGNDFSQTTISRFTALNLSFKNMCKLKPLLEKWLNDAESSP [E48T] | -1.25 ± 0.21 |
| SDLEESEKFAKTFKQRRIKLGFTQGDVGLAMGKLYGNDFSQTTISRFEALNLSFKNMCKLKPLLEKWLNDAESSP [L6S] | -0.16 ± 0.39 |
| SDLEEFEKFAKTFKQRRIKLGFTQGDVGLAMGKLYGNDFSQTTISRFEALNLSFKNMCKLKPLLEKWLNDAESSP [L6F] | -0.229 ± 0.32 |
| SDLEELEKFAKTFKQRRISLGFTQGDVGLAMGKLYGNDFSQTTISRFEALNLSFKNMCKLKPLLEKWLNDAESSP [K19S] | 0.11 ± 0.41 |
| SDLEELEKFAKTFKQRRIKLGFTQGDVGLAMGKLYGNDFSQTTISRFEALNLSFKNMCKLKPLLEKWLHDAESSP [N69H] | 0.083 ± 0.13 |

| Variant | abundance fitness |
| --- | --- |
| SDLEELEKFAKTFKQRRIKLGFTQGDVGLAMGKLYGNDFSQTTISRFEALNLSFKNMCKLKPLLEKWLDDAESSP [N69D] | 0.026 ± 0.059 |
| SDLEELEKFAKTFKQRRIKLGFTQGDVGLAMGKLYGNDFSQTTISRFEALNLSFKNMCKLKPLLEKWLIDAESSP [N69I] | 0.018 ± 0.059 |
| SDLEELEKFAKTFKQRRIKLGFTQGDVGLAMGKLYGNDFSQTTISRFEALNLSFKNMCKLKPLLEKWLGDAESSP [N69G] | 0.042 ± 0.033 |
| SDLEELEKFAKTFKQRRIKLGFTQGDVGLAMGKLYGNDFSQTTISRFEALNLSFKNMCKLKPLLECWLNDAESSP [K66C] | -0.063 ± 0.056 |
| SDLEELEKFAKTFKQRRIKLGFTQGDVGLAMGKLYGNDFSQTTISRFEALNLSFKNMPKLKPLLEKWLNDAESSP [C58P] | -0.474 ± 0.083 |
| SDLEELEKFAKTFKQRRIKLGFTQGDVGLAMGKLYGNDFSQTTISRFEALNLSFKNMIKLKPLLEKWLNDAESSP [C58I] | 0.01 ± 0.055 |
| SDLEELEKFAKTFKQRRIKLGFTQGDVGLAMGKLYGNDFSQTTISRFEALNLSFKNMDKLKPLLEKWLNDAESSP [C58D] | -0.04 ± 0.051 |
| SDLEELEKFAKTFKQRRIKLGFTQGDVGLAMGKLYGNDFSQTTISRVEALNLSFKNMCKLKPLLEKWLNDAESSP [F47V] | -0.346 ± 0.037 |
| SDLEELEKFAKTFKQRRIKLGFTQGDVGLAMGKLYGNDFSQTTISRDEALNLSFKNMCKLKPLLEKWLNDAESSP [F47D] | -0.985 ± 0.32 |
| SDLEELEKFAKTFKQRRIKLGFTQGDVGLAMGKLYGNDFSQTTISRFEALNNSFKNMCKLKPLLEKWLNDAESSP [L52N] | -0.444 ± 0.1 |
| SDLEELEKFAKNFKQRRIKLGFTQGDVGLAMGKLYGNDFSQTTISRFEALNLSFKNMCKLKPLLEKWLNDAESSP [T12N] | 0.063 ± 0.13 |
| SDLEELEKFAKTFKQRRIKLGFTQGDVGLAMGKLYGNDFSQTTISRFEALNLSFKNMCKLKPLLEKWLNDAESYP [S74Y] | -0.107 ± 0.079 |
| SDLEELEKFAKTFKQRRIKLGFTQGDVGLAMGKLYGNDFSQTTISRFEALNLSFKNMCKLKPLLEKWLNDAESWP [S74W] | -0.059 ± 0.057 |
| SDLEELEKFAKTFKQRRIKLGFTSGDVGLAMGKLYGNDFSQTTISRFEALNLSFKNMCKLKPLLEKWLNDAESSP [Q24S] | -0.071 ± 0.26 |
| SDLEELEGFAKTFKQRRIKLGFTQGDVGLAMGKLYGNDFSQTTISRFEALNLSFKNMCKLKPLLEKWLNDAESSP [K8G] | -0.115 ± 0.1 |
| SDLEELEKFAKTFKQRRIKLGFTQGDVGLAMGKLYGNDFSQTTISTFEALNLSFKNMCKLKPLLEKWLNDAESSP [R46T] | -0.181 ± 0.047 |
| SDLEELEKFAKTFKQRRIKLGFTQGDVGLAMGKLYGNDFSQTTISSFEALNLSFKNMCKLKPLLEKWLNDAESSP [R46S] | -0.008 ± 0.035 |
| SDLEELEKFAKTFKQRRIKLGFTQGDVGLAMGKLYGNDFSQTTISHFEALNLSFKNMCKLKPLLEKWLNDAESSP [R46H] | -0.038 ± 0.053 |
